The values that follow are results of earlier work, collected in paper PMC2723763.

One may read the pKd as the negative decadic logarithm of the Kd, by convention in mol/L.

In the data set the target is ZPI (Homo sapiens) (UniProt Q9UK55).

pKd: −log10 of the molar value.

UniProt Q9UK55, sequence (Q9UK55 22-444): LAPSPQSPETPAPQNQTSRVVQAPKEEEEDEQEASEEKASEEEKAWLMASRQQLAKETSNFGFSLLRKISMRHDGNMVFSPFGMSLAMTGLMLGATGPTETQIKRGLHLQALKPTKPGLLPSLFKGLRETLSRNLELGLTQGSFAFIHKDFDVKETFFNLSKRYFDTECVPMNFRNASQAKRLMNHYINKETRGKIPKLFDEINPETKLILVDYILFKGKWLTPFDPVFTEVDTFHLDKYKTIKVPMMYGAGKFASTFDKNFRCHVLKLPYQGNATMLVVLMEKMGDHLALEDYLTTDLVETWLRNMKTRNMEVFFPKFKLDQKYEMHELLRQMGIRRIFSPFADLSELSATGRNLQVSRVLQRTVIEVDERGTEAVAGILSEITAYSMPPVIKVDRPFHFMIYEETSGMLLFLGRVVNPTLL

Take protein Z (from UniProt P22891): the pKd was 8.15.
